From the supplement of paper PMC10567573

B1: JUNB (parent)
chain: FVKALDDLHKMNHVTPPNVSLGAT
B2: KCNG1 (parent)
chain: AVNLSVSTLPSLREEEEQVRAHAP
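Also: lentivirally expressed fusions sorted by FACS into six bins by GFP to DsRed ratio, PSI derived from sequencing read proportions per bin multiplied by bin number.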

Variants of: B1
Assay: protein stability index of a GFP-peptide fusion (GPS, HEK-293T) (PSI 1-6); higher = more stable
Conditions: c terminus: a fixed tail appended
Variant FVKALDDLHKMNHVTPPNVSLGAL has a protein stability index of 1.66.
In the case of FVKALDDLHKMNHVTPPNVSLGAQ, the protein stability index is reported as 1.83.
Work on FVKALDDLHKMNHVTPPNVSLGAK yielded a protein stability index of 1.75.
FVKALDDLHKMNHVTPPNVSLGAR showed a protein stability index of 1.33.
FVKALDDLHKMNHVTPPNVSLGAF showed a protein stability index of 2.66.
With FVKALDDLHKMNHVTPPNVSLGAN the protein stability index was 1.6.
Work on FVKALDDLHKMNHVTPPNVSLGAM yielded a protein stability index of 1.81.
Variant FVKALDDLHKMNHVTPPNVSLGAG has a protein stability index of 1.56.
FVKALDDLHKMNHVTPPNVSLGAD showed a protein stability index of 1.86.
For FVKALDDLHKMNHVTPPNVSLGAE, the protein stability index was 2.52.
FVKALDDLHKMNHVTPPNVSLGAI gave a protein stability index of 1.92.
Variant FVKALDDLHKMNHVTPPNVSLGAW has a protein stability index of 1.54.
With FVKALDDLHKMNHVTPPNVSLGAY the protein stability index was 1.62.
Variant FVKALDDLHKMNHVTPPNVSLGAC has a protein stability index of 1.33.
FVKALDDLHKMNHVTPPNVSLGAS showed a protein stability index of 2.
For FVKALDDLHKMNHVTPPNVSLGAH, the protein stability index was 1.83.
Variant FVKALDDLHKMNHVTPPNVSLGAA has a protein stability index of 1.51.
With FVKALDDLHKMNHVTPPNVSLGAV the protein stability index was 2.46.
With FVKALDDLHKMNHVTPPNVSLGKT the protein stability index was 2.06.
FVKALDDLHKMNHVTPPNVSLGTT gave a protein stability index of 1.31.
FVKALDDLHKMNHVTPPNVSLGFT gave a protein stability index of 1.41.
In the case of FVKALDDLHKMNHVTPPNVSLGNT, the protein stability index is reported as 2.02.
In the case of FVKALDDLHKMNHVTPPNVSLGST, the protein stability index is reported as 2.05.
FVKALDDLHKMNHVTPPNVSLGPT gave a protein stability index of 2.46.
FVKALDDLHKMNHVTPPNVSLGQT showed a protein stability index of 1.46.
FVKALDDLHKMNHVTPPNVSLGIT gave a protein stability index of 1.77.
FVKALDDLHKMNHVTPPNVSLGWT gave a protein stability index of 1.72.
For FVKALDDLHKMNHVTPPNVSLGRT, the protein stability index was 2.39.
Variant FVKALDDLHKMNHVTPPNVSLGGT has a protein stability index of 1.27.
FVKALDDLHKMNHVTPPNVSLGYT showed a protein stability index of 1.65.
With FVKALDDLHKMNHVTPPNVSLGVT the protein stability index was 2.
In the case of FVKALDDLHKMNHVTPPNVSLGCT, the protein stability index is reported as 2.16.
For FVKALDDLHKMNHVTPPNVSLGET, the protein stability index was 2.17.
In the case of FVKALDDLHKMNHVTPPNVSLGLT, the protein stability index is reported as 2.73.
Work on FVKALDDLHKMNHVTPPNVSLGDT yielded a protein stability index of 2.11.
FVKALDDLHKMNHVTPPNVSLGMT showed a protein stability index of 1.85.
Work on FVKALDDLHKMNHVTPPNVSLGHT yielded a protein stability index of 1.71.
For FVKALDDLHKMNHVTPPNVSLVAT, the protein stability index was 2.27.
For FVKALDDLHKMNHVTPPNVSLRAT, the protein stability index was 1.2.
FVKALDDLHKMNHVTPPNVSLYAT gave a protein stability index of 1.24.
FVKALDDLHKMNHVTPPNVSLQAT showed a protein stability index of 2.66.
FVKALDDLHKMNHVTPPNVSLTAT showed a protein stability index of 1.82.
With FVKALDDLHKMNHVTPPNVSLSAT the protein stability index was 2.16.

Variants of: B2
Assay: as above
Conditions: c terminus: a fixed tail appended
With AKNLSVSTLPSLREEEEQVRAHAP the protein stability index was 5.63.
In the case of AFNLSVSTLPSLREEEEQVRAHAP, the protein stability index is reported as 4.83.
With ADNLSVSTLPSLREEEEQVRAHAP the protein stability index was 5.64.
Work on AYNLSVSTLPSLREEEEQVRAHAP yielded a protein stability index of 4.93.
Variant ALNLSVSTLPSLREEEEQVRAHAP has a protein stability index of 5.04.
In the case of ANNLSVSTLPSLREEEEQVRAHAP, the protein stability index is reported as 5.59.
APNLSVSTLPSLREEEEQVRAHAP gave a protein stability index of 5.57.
AENLSVSTLPSLREEEEQVRAHAP showed a protein stability index of 5.39.
For AGNLSVSTLPSLREEEEQVRAHAP, the protein stability index was 5.46.
For ASNLSVSTLPSLREEEEQVRAHAP, the protein stability index was 5.41.
Work on AHNLSVSTLPSLREEEEQVRAHAP yielded a protein stability index of 5.54.
For ARNLSVSTLPSLREEEEQVRAHAP, the protein stability index was 5.04.
Work on ACNLSVSTLPSLREEEEQVRAHAP yielded a protein stability index of 4.98.
Work on AWNLSVSTLPSLREEEEQVRAHAP yielded a protein stability index of 4.1.
For AQNLSVSTLPSLREEEEQVRAHAP, the protein stability index was 5.33.
Work on AMNLSVSTLPSLREEEEQVRAHAP yielded a protein stability index of 4.79.
With ATNLSVSTLPSLREEEEQVRAHAP the protein stability index was 5.23.
In the case of AINLSVSTLPSLREEEEQVRAHAP, the protein stability index is reported as 4.89.
Work on AANLSVSTLPSLREEEEQVRAHAP yielded a protein stability index of 5.6.
Variant AVYLSVSTLPSLREEEEQVRAHAP has a protein stability index of 3.66.
AVELSVSTLPSLREEEEQVRAHAP showed a protein stability index of 5.73.
AVILSVSTLPSLREEEEQVRAHAP gave a protein stability index of 3.05.
Variant AVPLSVSTLPSLREEEEQVRAHAP has a protein stability index of 5.25.
AVKLSVSTLPSLREEEEQVRAHAP gave a protein stability index of 4.43.
In the case of AVCLSVSTLPSLREEEEQVRAHAP, the protein stability index is reported as 4.45.
AVTLSVSTLPSLREEEEQVRAHAP showed a protein stability index of 4.75.
AVLLSVSTLPSLREEEEQVRAHAP gave a protein stability index of 2.41.
With AVALSVSTLPSLREEEEQVRAHAP the protein stability index was 4.75.
AVWLSVSTLPSLREEEEQVRAHAP showed a protein stability index of 3.66.
AVRLSVSTLPSLREEEEQVRAHAP showed a protein stability index of 4.83.
AVSLSVSTLPSLREEEEQVRAHAP showed a protein stability index of 4.87.
Variant AVFLSVSTLPSLREEEEQVRAHAP has a protein stability index of 3.02.
With AVDLSVSTLPSLREEEEQVRAHAP the protein stability index was 5.26.
In the case of AVHLSVSTLPSLREEEEQVRAHAP, the protein stability index is reported as 4.72.
AVMLSVSTLPSLREEEEQVRAHAP gave a protein stability index of 4.37.
In the case of AVGLSVSTLPSLREEEEQVRAHAP, the protein stability index is reported as 5.03.
With AVVLSVSTLPSLREEEEQVRAHAP the protein stability index was 3.06.
In the case of AVQLSVSTLPSLREEEEQVRAHAP, the protein stability index is reported as 4.77.
For AVNLSNSTLPSLREEEEQVRAHAP, the protein stability index was 5.18.
With AVNLSFSTLPSLREEEEQVRAHAP the protein stability index was 4.59.
With AVNLSKSTLPSLREEEEQVRAHAP the protein stability index was 5.01.
AVNLSESTLPSLREEEEQVRAHAP showed a protein stability index of 5.58.
In the case of AVNLSHSTLPSLREEEEQVRAHAP, the protein stability index is reported as 5.3.
Work on AVNLSQSTLPSLREEEEQVRAHAP yielded a protein stability index of 5.24.
Variant AVNLSCSTLPSLREEEEQVRAHAP has a protein stability index of 4.75.
In the case of AVNLSYSTLPSLREEEEQVRAHAP, the protein stability index is reported as 4.69.
In the case of AVNLSTSTLPSLREEEEQVRAHAP, the protein stability index is reported as 5.08.
AVNLSLSTLPSLREEEEQVRAHAP gave a protein stability index of 4.69.
AVNLSSSTLPSLREEEEQVRAHAP showed a protein stability index of 5.18.
In the case of AVNLSDSTLPSLREEEEQVRAHAP, the protein stability index is reported as 5.34.
Work on AVNLSGSTLPSLREEEEQVRAHAP yielded a protein stability index of 4.8.
